# Results from the supplement of paper PMC9112550, “Optimization of the antimicrobial peptide Bac7 by deep mutational scanning” (BMC Biology, 2022).
# System: Escherichia coli TOP10
# Assay: shrunken log2 fold change of peptide-encoding DNA abundance (4.5 h post-induction vs induction); higher = less antimicrobial activity (less host growth inhibition)
# Settings: time post-induction: 4.5 h; library: site-saturation at positions 5, 18, 19, 20
# 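Also: peptides expressed intracellularly from a pBAD plasmid library in pooled LB shake-flask culture, induced with 0.3% L-arabinose, DNA abundance read by NGS, three biological replicates, DESeq2 with apeglm shrinkage.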
row,Sequence,shrunken log2 fold change
1,RRIRERPPRLPRPRPRPKQRPRP,0.235
2,RRIRTRPPRLPRPRPRPCDSPRP,-0.0585
3,RRIRQRPPRLPRPRPRPDHAPRP,0.014
4,RRIRFRPPRLPRPRPRPIIRPRP,-0.014
5,RRIRHRPPRLPRPRPRPPWDPRP,0.131
6,RRIRGRPPRLPRPRPRPSISPRP,0.0894
7,RRIRERPPRLPRPRPRPPICPRP,-0.302
8,RRIRIRPPRLPRPRPRPHDLPRP,-0.057
9,RRIRARPPRLPRPRPRPSHRPRP,0.0188
10,RRIRMRPPRLPRPRPRPTCCPRP,0.213
11,RRIRSRPPRLPRPRPRPTIAPRP,0.105
12,RRIRGRPPRLPRPRPRPEFMPRP,0.887
13,RRIRSRPPRLPRPRPRPGYDPRP,-0.125
14,RRIRSRPPRLPRPRPRPQSIPRP,-0.263
15,RRIRNRPPRLPRPRPRPMKMPRP,0.064
16,RRIRYRPPRLPRPRPRPAPKPRP,0.207
17,RRIRARPPRLPRPRPRPAYYPRP,-0.166
18,RRIRGRPPRLPRPRPRPRKTPRP,0.375
19,RRIRDRPPRLPRPRPRPHVKPRP,-0.205
20,RRIRTRPPRLPRPRPRPITKPRP,0.0123

row,Sequence,shrunken log2 fold change
1,RRIRDRPPRLPRPRPRPHLGPRP,0.0158
2,RRIRWRPPRLPRPRPRPKYYPRP,-0.84
3,RRIRARPPRLPRPRPRPWMCPRP,-0.12
4,RRIRGRPPRLPRPRPRPDYRPRP,0.127
5,RRIRYRPPRLPRPRPRPGPRPRP,0.744
6,RRIRQRPPRLPRPRPRPIREPRP,-0.0225
7,RRIRPRPPRLPRPRPRPEILPRP,0.0928
8,RRIRTRPPRLPRPRPRPCQFPRP,-0.0244
9,RRIRTRPPRLPRPRPRPDEEPRP,0.0173
10,RRIRFRPPRLPRPRPRPGWWPRP,-0.0573
11,RRIRWRPPRLPRPRPRPERLPRP,0.277
12,RRIRLRPPRLPRPRPRPYSAPRP,-0.693
13,RRIRVRPPRLPRPRPRPGQCPRP,-0.0287
14,RRIRIRPPRLPRPRPRPGFLPRP,-0.328
15,RRIRHRPPRLPRPRPRPCCKPRP,1.89
16,RRIRQRPPRLPRPRPRPTLYPRP,-0.0318
17,RRIRFRPPRLPRPRPRPVYMPRP,-0.969
18,RRIRARPPRLPRPRPRPAVVPRP,0.16
19,RRIRRRPPRLPRPRPRPWATPRP,0.0893
20,RRIRHRPPRLPRPRPRPLGDPRP,0.146

row,Sequence,shrunken log2 fold change
1,RRIRNRPPRLPRPRPRPGECPRP,0.266
2,RRIRTRPPRLPRPRPRPVRWPRP,0.774
3,RRIRPRPPRLPRPRPRPGNNPRP,-0.103
4,RRIRRRPPRLPRPRPRPRADPRP,0.461
5,RRIRDRPPRLPRPRPRPTPRPRP,0.792
6,RRIRVRPPRLPRPRPRPEPKPRP,0.13
7,RRIRHRPPRLPRPRPRPLFPPRP,-0.102
8,RRIRIRPPRLPRPRPRPICQPRP,-0.418
9,RRIRGRPPRLPRPRPRPWVAPRP,-0.026
10,RRIRYRPPRLPRPRPRPALLPRP,-0.0984
11,RRIRFRPPRLPRPRPRPGTHPRP,1.26
12,RRIRVRPPRLPRPRPRPVTHPRP,-0.277
13,RRIRDRPPRLPRPRPRPNRIPRP,-0.152
14,RRIRPRPPRLPRPRPRPDQMPRP,0.196
15,RRIRTRPPRLPRPRPRPEIEPRP,-0.299
16,RRIRCRPPRLPRPRPRPYCCPRP,-0.135
17,RRIRWRPPRLPRPRPRPKNEPRP,0.177
18,RRIRSRPPRLPRPRPRPLMNPRP,-0.204
19,RRIRTRPPRLPRPRPRPWVYPRP,-0.294
20,RRIRARPPRLPRPRPRPHCYPRP,0.101
